Reference: patent US20260077041A1

Key:
IL-17A (human) = IL-17A (human) (UniProt Q16552); experiment: SPR (Biacore T200), drug captured on protein A chip, IL-17A as analyte, multi-cycle
TNFα (human) = TNFα (human) (UniProt P01375); experiment: SPR (Biacore T200), drug captured on protein A chip, TNFα as analyte, multi-cycle
Sequence of TNFα (human) (P01375 77-233 limits assumed): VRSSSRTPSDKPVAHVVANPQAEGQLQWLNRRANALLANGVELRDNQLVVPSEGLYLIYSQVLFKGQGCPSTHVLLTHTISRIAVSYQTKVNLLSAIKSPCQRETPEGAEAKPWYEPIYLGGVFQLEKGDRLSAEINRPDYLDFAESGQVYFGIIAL

Sequence of IL-17A (human) (Q16552 24-155 limits assumed): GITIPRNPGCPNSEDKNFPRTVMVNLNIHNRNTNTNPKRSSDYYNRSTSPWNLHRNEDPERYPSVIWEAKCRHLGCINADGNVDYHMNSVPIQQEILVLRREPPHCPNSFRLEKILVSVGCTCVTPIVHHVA

Kd (IL-17A (human)) | koff (IL-17A (human)) | kon (IL-17A (human)) | Kd (TNFα (human)) | koff (TNFα (human)) | kon (TNFα (human)) | Substance
0.0787 nM | 6.12e-05 s⁻¹ | 778000 M⁻¹ s⁻¹ |  |  |  | Cosentyx (antibody)
 |  |  | 0.16 nM | 0.00015 s⁻¹ | 941000 M⁻¹ s⁻¹ | Humira (antibody)
